Biological target: the molecule itself
Test: SEC; Superdex-200 Increase column, 25 mM Tris-HCl (pH 8.0), 10% (v/v) glycerol, 100 mM NaCl; retention time of mutants compared with wild type

| Protein | stoichiometry N |
| --- | --- |
| OphMA wild type, full-length, His8-tagged (enzyme, Omphalotus olearius, UniProt A0A2R2JFI5 1-417, looked up, backbone N-methylation: most abundant species with complete methylation of the core peptide (9-fold) and an additional methylation at Val413) METSTQTKAGSLTIVGTGIESIGQMTLQALSYIEAAAKVFYCVIDPATEAFILTKNKNCVDLYQYYDNGKSRLNTYTQMSELMVREVRKGLDVVGVFYGHPGVFVNPSHRALAIAKSEGYRARMLPGVSAEDCLFADLCIDPSNPGCLTYEASDFLIRDRPVSIHSHLVLFQVGCVGIADFNFTGFDNNKFGVLVDRLEQEYGAEHPVVHYIAAMMPHQDPVTDKYTVAQLREPEIAKRVGGVSTFYIPPKARKASNLDIIRRLELLPAGQVPDKKARIYPANQWEPDVPEVEPYRPSDQAAIAQLADHAPPEQYQPLATSKAMSDVMTKLALDPKALADYKADHRAFAQSVPDLTPQERAALELGDSWAIRCAMKNMPSSLLDAARESGEEASQNGFPWVIVVGVIGVIGSVMSTE | 2 |
| OphMA I407P, full-length, His-tagged (in vivo methylation series) (enzyme, backbone N-methylation: a variety of species (two to four methylations), evidence of up to six) METSTQTKAGSLTIVGTGIESIGQMTLQALSYIEAAAKVFYCVIDPATEAFILTKNKNCVDLYQYYDNGKSRLNTYTQMSELMVREVRKGLDVVGVFYGHPGVFVNPSHRALAIAKSEGYRARMLPGVSAEDCLFADLCIDPSNPGCLTYEASDFLIRDRPVSIHSHLVLFQVGCVGIADFNFTGFDNNKFGVLVDRLEQEYGAEHPVVHYIAAMMPHQDPVTDKYTVAQLREPEIAKRVGGVSTFYIPPKARKASNLDIIRRLELLPAGQVPDKKARIYPANQWEPDVPEVEPYRPSDQAAIAQLADHAPPEQYQPLATSKAMSDVMTKLALDPKALADYKADHRAFAQSVPDLTPQERAALELGDSWAIRCAMKNMPSSLLDAARESGEEASQNGFPWVIVVGVPGVIGSVMSTE | 2 |
| OphMA V406R, full-length, His-tagged (enzyme, backbone N-methylation: dominant species unmethylated, next most abundant with two methylations) METSTQTKAGSLTIVGTGIESIGQMTLQALSYIEAAAKVFYCVIDPATEAFILTKNKNCVDLYQYYDNGKSRLNTYTQMSELMVREVRKGLDVVGVFYGHPGVFVNPSHRALAIAKSEGYRARMLPGVSAEDCLFADLCIDPSNPGCLTYEASDFLIRDRPVSIHSHLVLFQVGCVGIADFNFTGFDNNKFGVLVDRLEQEYGAEHPVVHYIAAMMPHQDPVTDKYTVAQLREPEIAKRVGGVSTFYIPPKARKASNLDIIRRLELLPAGQVPDKKARIYPANQWEPDVPEVEPYRPSDQAAIAQLADHAPPEQYQPLATSKAMSDVMTKLALDPKALADYKADHRAFAQSVPDLTPQERAALELGDSWAIRCAMKNMPSSLLDAARESGEEASQNGFPWVIVVGRIGVIGSVMSTE | 2 |
| OphMA V404R, full-length, His-tagged (enzyme, backbone N-methylation: dominant species unmethylated, next most abundant with two methylations) METSTQTKAGSLTIVGTGIESIGQMTLQALSYIEAAAKVFYCVIDPATEAFILTKNKNCVDLYQYYDNGKSRLNTYTQMSELMVREVRKGLDVVGVFYGHPGVFVNPSHRALAIAKSEGYRARMLPGVSAEDCLFADLCIDPSNPGCLTYEASDFLIRDRPVSIHSHLVLFQVGCVGIADFNFTGFDNNKFGVLVDRLEQEYGAEHPVVHYIAAMMPHQDPVTDKYTVAQLREPEIAKRVGGVSTFYIPPKARKASNLDIIRRLELLPAGQVPDKKARIYPANQWEPDVPEVEPYRPSDQAAIAQLADHAPPEQYQPLATSKAMSDVMTKLALDPKALADYKADHRAFAQSVPDLTPQERAALELGDSWAIRCAMKNMPSSLLDAARESGEEASQNGFPWVIVRGVIGVIGSVMSTE | 2 |
| OphMA V406E, full-length, His-tagged (enzyme, backbone N-methylation: mixture of similarly abundant peptides containing 4, 5, or 6 methylations) METSTQTKAGSLTIVGTGIESIGQMTLQALSYIEAAAKVFYCVIDPATEAFILTKNKNCVDLYQYYDNGKSRLNTYTQMSELMVREVRKGLDVVGVFYGHPGVFVNPSHRALAIAKSEGYRARMLPGVSAEDCLFADLCIDPSNPGCLTYEASDFLIRDRPVSIHSHLVLFQVGCVGIADFNFTGFDNNKFGVLVDRLEQEYGAEHPVVHYIAAMMPHQDPVTDKYTVAQLREPEIAKRVGGVSTFYIPPKARKASNLDIIRRLELLPAGQVPDKKARIYPANQWEPDVPEVEPYRPSDQAAIAQLADHAPPEQYQPLATSKAMSDVMTKLALDPKALADYKADHRAFAQSVPDLTPQERAALELGDSWAIRCAMKNMPSSLLDAARESGEEASQNGFPWVIVVGEIGVIGSVMSTE | 2 |
| OphMA V403T, full-length, His-tagged (enzyme, backbone N-methylation: 10-fold methylated species most abundant) METSTQTKAGSLTIVGTGIESIGQMTLQALSYIEAAAKVFYCVIDPATEAFILTKNKNCVDLYQYYDNGKSRLNTYTQMSELMVREVRKGLDVVGVFYGHPGVFVNPSHRALAIAKSEGYRARMLPGVSAEDCLFADLCIDPSNPGCLTYEASDFLIRDRPVSIHSHLVLFQVGCVGIADFNFTGFDNNKFGVLVDRLEQEYGAEHPVVHYIAAMMPHQDPVTDKYTVAQLREPEIAKRVGGVSTFYIPPKARKASNLDIIRRLELLPAGQVPDKKARIYPANQWEPDVPEVEPYRPSDQAAIAQLADHAPPEQYQPLATSKAMSDVMTKLALDPKALADYKADHRAFAQSVPDLTPQERAALELGDSWAIRCAMKNMPSSLLDAARESGEEASQNGFPWVITVGVIGVIGSVMSTE | 2 |
| OphMA V406P, full-length, His-tagged (in vivo methylation series) (enzyme, backbone N-methylation: dominant species unmethylated, evidence for two and four methylations) METSTQTKAGSLTIVGTGIESIGQMTLQALSYIEAAAKVFYCVIDPATEAFILTKNKNCVDLYQYYDNGKSRLNTYTQMSELMVREVRKGLDVVGVFYGHPGVFVNPSHRALAIAKSEGYRARMLPGVSAEDCLFADLCIDPSNPGCLTYEASDFLIRDRPVSIHSHLVLFQVGCVGIADFNFTGFDNNKFGVLVDRLEQEYGAEHPVVHYIAAMMPHQDPVTDKYTVAQLREPEIAKRVGGVSTFYIPPKARKASNLDIIRRLELLPAGQVPDKKARIYPANQWEPDVPEVEPYRPSDQAAIAQLADHAPPEQYQPLATSKAMSDVMTKLALDPKALADYKADHRAFAQSVPDLTPQERAALELGDSWAIRCAMKNMPSSLLDAARESGEEASQNGFPWVIVVGPIGVIGSVMSTE | 2 |
| OphMA V403E, full-length, His-tagged (enzyme, backbone N-methylation: peptides with 1 methylation) METSTQTKAGSLTIVGTGIESIGQMTLQALSYIEAAAKVFYCVIDPATEAFILTKNKNCVDLYQYYDNGKSRLNTYTQMSELMVREVRKGLDVVGVFYGHPGVFVNPSHRALAIAKSEGYRARMLPGVSAEDCLFADLCIDPSNPGCLTYEASDFLIRDRPVSIHSHLVLFQVGCVGIADFNFTGFDNNKFGVLVDRLEQEYGAEHPVVHYIAAMMPHQDPVTDKYTVAQLREPEIAKRVGGVSTFYIPPKARKASNLDIIRRLELLPAGQVPDKKARIYPANQWEPDVPEVEPYRPSDQAAIAQLADHAPPEQYQPLATSKAMSDVMTKLALDPKALADYKADHRAFAQSVPDLTPQERAALELGDSWAIRCAMKNMPSSLLDAARESGEEASQNGFPWVIEVGVIGVIGSVMSTE | 2 |
| OphMA V404E, full-length, His-tagged (in vivo methylation series) (enzyme, backbone N-methylation: peptides with 2 methylations) METSTQTKAGSLTIVGTGIESIGQMTLQALSYIEAAAKVFYCVIDPATEAFILTKNKNCVDLYQYYDNGKSRLNTYTQMSELMVREVRKGLDVVGVFYGHPGVFVNPSHRALAIAKSEGYRARMLPGVSAEDCLFADLCIDPSNPGCLTYEASDFLIRDRPVSIHSHLVLFQVGCVGIADFNFTGFDNNKFGVLVDRLEQEYGAEHPVVHYIAAMMPHQDPVTDKYTVAQLREPEIAKRVGGVSTFYIPPKARKASNLDIIRRLELLPAGQVPDKKARIYPANQWEPDVPEVEPYRPSDQAAIAQLADHAPPEQYQPLATSKAMSDVMTKLALDPKALADYKADHRAFAQSVPDLTPQERAALELGDSWAIRCAMKNMPSSLLDAARESGEEASQNGFPWVIVEGVIGVIGSVMSTE | 2 |
| OphMA I407R, full-length, His-tagged (enzyme, backbone N-methylation: dominant species carried three methylations) METSTQTKAGSLTIVGTGIESIGQMTLQALSYIEAAAKVFYCVIDPATEAFILTKNKNCVDLYQYYDNGKSRLNTYTQMSELMVREVRKGLDVVGVFYGHPGVFVNPSHRALAIAKSEGYRARMLPGVSAEDCLFADLCIDPSNPGCLTYEASDFLIRDRPVSIHSHLVLFQVGCVGIADFNFTGFDNNKFGVLVDRLEQEYGAEHPVVHYIAAMMPHQDPVTDKYTVAQLREPEIAKRVGGVSTFYIPPKARKASNLDIIRRLELLPAGQVPDKKARIYPANQWEPDVPEVEPYRPSDQAAIAQLADHAPPEQYQPLATSKAMSDVMTKLALDPKALADYKADHRAFAQSVPDLTPQERAALELGDSWAIRCAMKNMPSSLLDAARESGEEASQNGFPWVIVVGVRGVIGSVMSTE | 2 |
| OphMA I407E, full-length, His-tagged (enzyme, backbone N-methylation: peptides with 5 methylations) METSTQTKAGSLTIVGTGIESIGQMTLQALSYIEAAAKVFYCVIDPATEAFILTKNKNCVDLYQYYDNGKSRLNTYTQMSELMVREVRKGLDVVGVFYGHPGVFVNPSHRALAIAKSEGYRARMLPGVSAEDCLFADLCIDPSNPGCLTYEASDFLIRDRPVSIHSHLVLFQVGCVGIADFNFTGFDNNKFGVLVDRLEQEYGAEHPVVHYIAAMMPHQDPVTDKYTVAQLREPEIAKRVGGVSTFYIPPKARKASNLDIIRRLELLPAGQVPDKKARIYPANQWEPDVPEVEPYRPSDQAAIAQLADHAPPEQYQPLATSKAMSDVMTKLALDPKALADYKADHRAFAQSVPDLTPQERAALELGDSWAIRCAMKNMPSSLLDAARESGEEASQNGFPWVIVVGVEGVIGSVMSTE | 2 |
| OphMA V403R, full-length, His-tagged (enzyme, backbone N-methylation: dominant species unmethylated, next most abundant with two methylations) METSTQTKAGSLTIVGTGIESIGQMTLQALSYIEAAAKVFYCVIDPATEAFILTKNKNCVDLYQYYDNGKSRLNTYTQMSELMVREVRKGLDVVGVFYGHPGVFVNPSHRALAIAKSEGYRARMLPGVSAEDCLFADLCIDPSNPGCLTYEASDFLIRDRPVSIHSHLVLFQVGCVGIADFNFTGFDNNKFGVLVDRLEQEYGAEHPVVHYIAAMMPHQDPVTDKYTVAQLREPEIAKRVGGVSTFYIPPKARKASNLDIIRRLELLPAGQVPDKKARIYPANQWEPDVPEVEPYRPSDQAAIAQLADHAPPEQYQPLATSKAMSDVMTKLALDPKALADYKADHRAFAQSVPDLTPQERAALELGDSWAIRCAMKNMPSSLLDAARESGEEASQNGFPWVIRVGVIGVIGSVMSTE | 2 |
| OphMA V403P, full-length, His-tagged (enzyme, backbone N-methylation: dominant species unmethylated, evidence for two methylations) METSTQTKAGSLTIVGTGIESIGQMTLQALSYIEAAAKVFYCVIDPATEAFILTKNKNCVDLYQYYDNGKSRLNTYTQMSELMVREVRKGLDVVGVFYGHPGVFVNPSHRALAIAKSEGYRARMLPGVSAEDCLFADLCIDPSNPGCLTYEASDFLIRDRPVSIHSHLVLFQVGCVGIADFNFTGFDNNKFGVLVDRLEQEYGAEHPVVHYIAAMMPHQDPVTDKYTVAQLREPEIAKRVGGVSTFYIPPKARKASNLDIIRRLELLPAGQVPDKKARIYPANQWEPDVPEVEPYRPSDQAAIAQLADHAPPEQYQPLATSKAMSDVMTKLALDPKALADYKADHRAFAQSVPDLTPQERAALELGDSWAIRCAMKNMPSSLLDAARESGEEASQNGFPWVIPVGVIGVIGSVMSTE | 2 |
